# Target: Rabbit (Oryctolagus cuniculus) 80S ribosome (rabbit (endogenous in rabbit reticulocyte lysate)) (UniProt G1U0Q2)
row,IC50 of inhibition of translation of nanoluciferase mRNA in RRL,Substance
1,33 nM,Refolded WT human angiogenin (from UniProt P03950 25-147) (enzyme)
2,440 nM,Refolded angiogenin(K54E) (from UniProt P03950 25-147) (enzyme)

# — paper PMC11912008
